Assay results from patent US20150297672A1, “Alpha- and gamma-MSH analogues” (TXP Pharma GmbH, priority 2014, published 2015).

Target: human melanocortin receptor type 1 (MC1r) (human) (UniProt Q01726)
Experiment: cell-based or functional assay

Chain of human melanocortin receptor type 1 (MC1r) (human) (Q01726 whole entry): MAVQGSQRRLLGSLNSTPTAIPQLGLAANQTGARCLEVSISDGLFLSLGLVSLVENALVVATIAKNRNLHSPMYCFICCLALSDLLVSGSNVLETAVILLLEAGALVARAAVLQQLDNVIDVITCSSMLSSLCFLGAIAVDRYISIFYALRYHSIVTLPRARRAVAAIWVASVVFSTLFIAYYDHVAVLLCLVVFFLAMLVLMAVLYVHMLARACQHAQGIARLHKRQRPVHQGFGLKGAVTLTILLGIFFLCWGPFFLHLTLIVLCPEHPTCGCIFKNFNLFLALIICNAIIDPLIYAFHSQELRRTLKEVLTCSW

Ac-KKKKKKSYSMEHFRWGKPV-NH2
EC50, cAMP production: 2.12 nM | Emax (max efficacy expressed as percent of αMSH), cAMP production: 72 % of αMSH | maximal efficacy (Emax), cAMP production: 3 nM

B1: Ac(Lys)6-NDP-αMSH (Ac(Lys)6-Ser-Tyr-Ser-Nle Glu-His-(D-Phe)-Arg-Trp-Gly-Lys-Pro-Val-NH2) (peptide)
peptide: KKKKKKSYSXEHFRWGKPV
modifications: N-terminal acetyl; Nle (norleucine) at position 10 (written X); D-Phe at position 13; C-terminal amide
EC50, cAMP production: 1.35 nM | Emax (max efficacy expressed as percent of αMSH), cAMP production: 62 % of αMSH
